From the RNAGym collection of RNA variant scans (doi:10.1021/acssynbio.7b00057)

B1: Pistol ribozyme (parent)
chain: GGGUCGUUGUUCCAUAAUCGCGUGGAUAUGGCACGCAAGUUUCUACCGGGCACCGUAAAUGUCCGACUGGAGCCGUUCGGGCGGCUAUAAACAGACCUCAGGCCCGAAGCGUGGCGGCACCUGCCGCCGGUGGUAAAAAAGAUCGGAAGAGCACACGUCU

Variants of: B1
Assay: aptazyme ON/OFF ratio, guanine; higher = stronger switching; co-transcriptional cleavage with and without guanine

Variant | aptazyme ON/OFF ratio
U7C G9A U10C U11C C12A C13G | 1.15
U7C G9A U10C U11C C12A C13A | 1.07
U7C G9A U10C U11C C12A C13U | 1.16
U7C G9A U11C C12U C13A | 1.17
U7C G9A U11C C12U C13G | 1.02
U7C G9A U11C C12U C13U | 1.11
U7C G9A U11A C13A | 1.21
U7C G9A U11A C13G | 1.09
U7C G9A U11A C13U | 1.13
U7C G9A U10G C13U | 1.34
U7C G9A U10G C13A | 1.19
U7C G9A U10G C13G | 1.02
U7C G9A U10G U11A C12G C13A | 1.15
U7C G9A U10G U11A C12G C13U | 1.25
U7C G9A U10G U11A C12G C13G | 1.31
U7C G9A U10C U11A C12U C13A | 1.21
U7C G9A U10C U11A C12U C13G | 1.22
U7C G9A U10C U11A C12U C13U | 1.39
U7C G9A U10C C12U | 1.2
U7C G9A U10C C12G | 1.2
U7C G9A U10C U11A C13U | 1.33
U7C G9A U10C U11A C13G | 1.12
U7C G9A U10C U11A C13A | 1.18
U7C G9A U11G C12A | 1.08

Variant | aptazyme ON/OFF ratio
U7C G9A U11G C12G | 1.37
U7C G9A U11G C12U | 1.27
U7C G9A U10G C12A C13U | 1.19
U7C G9A U10G C12A C13G | 1.08
U7C G9A U10G C12A C13A | 1.15
U7C G9A U10C U11G C13G | 1.22
U7C G9A U10C U11G C13A | 1.19
U7C G9A U10C U11G C13U | 1.45
U7C G9A U10G U11A C12A C13U | 1.16
U7C G9A U10G U11A C12A C13A | 1.17
U7C G9A U10G U11A C12A C13G | 1.09
U7C G9A U10C C13A | 1.07
U7C G9A U10C C13G | 1.06
U7C G9A U10C C13U | 1.96
U7C G9A U11G C12U C13A | 1.35
U7C G9A U10G C12G | 1.28
U7C G9A U10G C12U | 1.33
U7C G9A U10G C12A | 1.15
U7C G9A U10C U11A C12U | 1.34
U7C G9A U10C U11A C12G | 1.14
U7C G9A U10C U11A C12A | 1.27
U7C G9A U10G | 1.42
U7C G9A U10C U11C C13U | 1.03
U7C G9A U10C U11C C13G | 1.02

Variant | aptazyme ON/OFF ratio
U7C G9A U10C U11C C13A | 1.01
U7C G9A U11A C12G C13G | 1.19
U7C G9A U11A C12G C13A | 1.15
U7C G9A U11A C12G C13U | 1.27
U7C G9A U10C U11G C12G | 1.28
U7C G9A U10C U11G C12A | 1.28
U7C G9A U10C U11G C12U | 1.45
U7C G9A U10C U11G C12A C13A | 1.21
U7C G9A U10C U11G C12A C13G | 1.15
U7C G9A U10C U11G C12A C13U | 1.08
U7C G9A U11A C12U C13A | 1.07
U7C G9A U11A C12U C13G | 1.09
U7C G9A U11A C12U C13U | 1.3
U7C G9A U10G U11G C13G | 1.05
U7C G9A U10G U11G C13U | 1.17
U7C G9A U10G U11G C13A | 1.24
U7C G9A U10G U11A C13A | 1.06
U7C G9A U10G U11A C13U | 1.03
U7C G9A U10G U11A C13G | 1.04
U7C G9A U10G U11G C12A | 1.16
U7C G9A U10G U11G C12G | 1.23
U7C G9A U10G U11G C12U | 1.28
U7C G9A U10C C12A C13U | 1.31
U7C G9A U10G U11C C12G C13A | 1.19

Variant | aptazyme ON/OFF ratio
U7C G9A U10G U11C C12G C13U | 1.11
U7C G9A U10G U11C C12G C13G | 1.34
U7C G9A U11C C12A | 1.2
U7C G9A U11C C12U | 1.17
U7C G9A U11C C12G | 1.22
U7C G9A U10G U11G C12G C13A | 1.07
U7C G9A U10G U11G C12G C13U | 1.07
U7C G9A U10G U11G C12G C13G | 1.05
U7C G9A U10C C12G C13U | 1.15
U7C G9A U10C C12G C13G | 1.26
U7C G9A U10C C12G C13A | 1.26
U7C G9A U11A C12A | 1.38
U7C G9A U11A C12G | 1.28
U7C G9A U11A C12U | 1.19
U7C G9A U10C U11C C12U | 1.05
U7C G9A U10C U11C C12G | 1.2
U7C G9A U10C U11C C12A | 1.34
U7C G9A U10G C12G C13U | 1.15
U7C G9A U10G C12G C13A | 1.14
U7C G9A U10G C12G C13G | 1.1
U7C G9A U10G U11C C13A | 1.24
U7C G9A U10G U11C C13U | 1.06
U7C G9A U10G U11C C13G | 1.03
U7C G9A U10C C12U C13U | 1.14

Variant | aptazyme ON/OFF ratio
U7C G9A U10C C12U C13A | 1.2
U7C G9A U10C C12U C13G | 1.16
U7C G9A U10G U11C C12A C13A | 1.2
U7C G9A U10G U11C C12A C13U | 1.15
U7C G9A U10G U11C C12A C13G | 1.11
U7C G9A U11C C12A C13A | 1.16
U7C G9A U11C C12A C13U | 1.15
U7C G9A U11C C12A C13G | 1.12
U7C G9A U11A C12A C13A | 1.24
U7C G9A U11A C12A C13U | 1.21
U7C G9A U11A C12A C13G | 1.12
U7C G9A U10C U11C C12U C13G | 1.04
U7C G9A U10C U11C C12U C13U | 1.07
U7C G9A U10C U11C C12U C13A | 1.04
U7C G9A U11G C12A C13A | 1.22
U7C G9A U11G C12A C13U | 1.14
U7C G9A U11G C12A C13G | 1.25
U7C G9A U10C U11C | 1.12
U7C G9A U10C U11G | 1.42
U7C G9A U10C U11A | 2.6
U7C G9A U10G U11C C12A | 1.28
U7C G9A U10G U11C C12U | 1.18
U7C G9A U10G U11C C12G | 1.32
U7C G9A U10C U11C C12G C13G | 1.12

Variant | aptazyme ON/OFF ratio
U7C G9A U10C U11C C12G C13U | 1.04
U7C G9A U10C U11C C12G C13A | 1.09
U7C G9A U10G U11G | 1.09
U7C G9A U10G U11A | 1.06
U7C G9A U10G U11C | 1.08
U7C G9A U11C C13U | 1.06
U7C G9A U11C C13G | 1.04
U7C G9A U11C C13A | 1.07
U7C G9A U10C U11A C12G C13U | 1.18
U7C G9A U10C U11A C12G C13A | 1.11
U7C G9A U10C U11A C12G C13G | 1.39
U7C G9A U10G U11G C12U C13U | 1.21
U7C G9A U10G U11G C12U C13G | 1.05
U7C G9A U10G U11G C12U C13A | 1.14
U7C G9A U10G U11G C12A C13U | 1.13
U7C G9A U10G U11G C12A C13A | 1.17
U7C G9A U10G U11G C12A C13G | 1.09
U7C G9A U11G C12G C13G | 1.21
U7C G9A U11G C12G C13A | 1.19
U7C G9A U11G C12G C13U | 1.09
U7C G9A U10G U11A C12U C13U | 1.18
U7C G9A U10G U11A C12U C13A | 1.05
U7C G9A U10G U11A C12U C13G | 1.14
U7C G9A U11C C12G C13G | 1.17

Variant | aptazyme ON/OFF ratio
U7C G9A U11C C12G C13A | 1.29
U7C G9A U11C C12G C13U | 1.18
U7C G9A U10C U11G C12U C13U | 1.32
U7C G9A U10C U11G C12U C13G | 1.34
U7C G9A U10C U11G C12U C13A | 1.31
U7C G9A U10C U11A C12A C13U | 1.16
U7C G9A U10C U11A C12A C13G | 1.22
U7C G9A U10C U11A C12A C13A | 1.12
U7C G9A U11C | 1.05
U7C G9A U11G | 1.37
U7C G9A U11A | 1.33
U7C G9A U10C U11G C12G C13A | 1.14
U7C G9A U10C U11G C12G C13U | 1.09
U7C G9A U10C U11G C12G C13G | 1.11
U7C G9A U10G U11A C12U | 1.05
U7C G9A U10G U11A C12G | 1.21
U7C G9A U10G U11A C12A | 1.32
U7C G9A U10G U11C C12U C13G | 1.09
U7C G9A U10G U11C C12U C13U | 1.21
U7C G9A U10G U11C C12U C13A | 1.2
U7C G9A U10G C12U C13G | 1.17
U7C G9A U10G C12U C13A | 1.2
U7C G9A U10G C12U C13U | 1.11
